This assay concerns the target N-terminal domain of enzyme I (EIN) (UniProt P08839 1-249). The experiment in a line: NMR titration.

Where “and” joins values, the source holds several entries; their conditions need not be identical. Equal entries are not always repeated.

B1: Histidine phosphocarrier protein (HPr) (natural protein)
chain: not shown
As to B1, the Kd was 2820 nM and 2450 nM and 3030 nM and 3020 nM.
